Laboratory results taken from patent US20100286372A1 (SCHERING, published 2010).

What was measured:
[1] = biological target: T1, human PXR-LBD (pregnane X receptor ligand binding domain, residues 130-434) with N-terminal 6x His (human, UniProt O75469 130-434); assay: temperature-dependent circular dichroism (thermal denaturation), shift against apo PXR (Tm 41.5 C)
T1 construct: also called apo PXR; not shown: N-terminal 6x His tag
T1 sequence: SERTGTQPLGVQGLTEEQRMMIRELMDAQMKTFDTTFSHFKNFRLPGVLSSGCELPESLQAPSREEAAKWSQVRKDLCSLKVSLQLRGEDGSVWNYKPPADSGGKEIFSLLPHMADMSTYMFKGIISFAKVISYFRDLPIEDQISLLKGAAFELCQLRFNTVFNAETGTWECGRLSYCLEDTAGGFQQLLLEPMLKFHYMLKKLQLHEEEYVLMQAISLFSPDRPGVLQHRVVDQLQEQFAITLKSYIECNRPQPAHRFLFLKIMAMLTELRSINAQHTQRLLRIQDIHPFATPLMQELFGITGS

[2] = biological target: T1, human PXR-LBD (pregnane X receptor …); assay: temperature-dependent circular dichroism (thermal denaturation at 220 nm), 2.5 uM PXR, 50 uM peptide
[3] = biological target: T1, human PXR-LBD (pregnane X receptor …); assay: temperature-dependent circular dichroism (thermal denaturation) of PXR with 50 uM peptide

Kd [2]: 1340 nM
B1: SRC-1 peptide (676-CPSSHSSLTERHKILHRLLQEGSPS-700) (peptide)
peptide: CPSSHSSLTERHKILHRLLQEGSPS
ΔTm [1]: 4 C
Tm [3]: 45.5 C
